Article PMC9720572, “Macromolecular crowding amplifies allosteric regulation of T-cell protein tyrosine phosphatase” (The Journal of Biological Chemistry, 2022)

Molecular target: the molecule itself
Assay: FRET or BRET; in vitro intermolecular FRET; equimolar mixture of the CFP-X-CFP and YFP-X-YFP fusions, total protein 10 nM, kinetic buffer (50 mM Tris-HCl pH 7.0, 125 mM NaCl, 0.01% Tween-20, 1 mM DTT) with 22.5% PEG 3350, 1 h at 30 °C; excitation 400 nm, ratio R of emission at 530 nm/485 nm

B1: TC45^E/A (TC45 with 378KRKRPR383 mutated into 378EAAAPE383), fused at both termini to CFP (CFP-TC45^E/A-CFP) or to YFP (YFP-TC45^E/A-YFP), bacterially expressed (enzyme, UniProt P17706-2 1-387, looked up)
chain: MPTTIEREFEELDTQRRWQPLYLEIRNESHDYPHRVAKFPENRNRNRYRDVSPYDHSRVKLQNAENDYINASLVDIEEAQRSYILTQGPLPNTCCHFWLMVWQQKTKAVVMLNRIVEKESVKCAQYWPTDDQEMLFKETGFSVKLLSEDVKSYYTVHLLQLENINSGETRTISHFHYTTWPDFGVPESPASFLNFLFKVRESGSLNPDHGPAVIHCSAGIGRSGTFSLVDTCLVLMEKGDDINIKQVLLNMRKYRMGLIQTPDQLRFSYMAIIEGAKCIKGDSSIQKRWKELSKEDLSPAFDHSPNKIMTEKYNGNRIGLEEEKLTGDRCTGLSSKMQDTMEENSESALRKRIREDRKATTAQKVQQMKQRLNENEREAAAPELTDT
notes: The His6 tag and its thrombin cleavage are described in general for the pET28 constructs and the purification; also called C-EA-C; Y-EA-Y; not shown: His6, N-terminal, cleaved; CFP (one copy) or YFP (the other copy), N-terminal, kept; CFP (one copy) or YFP (the other copy), C-terminal, kept
B1: binds.

B2: T-cell protein tyrosine phosphatase, 45 kDa form (TC45), wild type, fused at both termini to CFP (CFP-TC45-CFP) or to YFP (YFP-TC45-YFP), bacterially expressed (enzyme, UniProt P17706-2 1-387, looked up)
chain: MPTTIEREFEELDTQRRWQPLYLEIRNESHDYPHRVAKFPENRNRNRYRDVSPYDHSRVKLQNAENDYINASLVDIEEAQRSYILTQGPLPNTCCHFWLMVWQQKTKAVVMLNRIVEKESVKCAQYWPTDDQEMLFKETGFSVKLLSEDVKSYYTVHLLQLENINSGETRTISHFHYTTWPDFGVPESPASFLNFLFKVRESGSLNPDHGPAVIHCSAGIGRSGTFSLVDTCLVLMEKGDDINIKQVLLNMRKYRMGLIQTPDQLRFSYMAIIEGAKCIKGDSSIQKRWKELSKEDLSPAFDHSPNKIMTEKYNGNRIGLEEEKLTGDRCTGLSSKMQDTMEENSESALRKRIREDRKATTAQKVQQMKQRLNENERKRKRPRLTDT
notes: T-cell protein tyrosine phosphatase (TC-PTP, encoded by PTPN2), 45 kDa form TC45, full-length ORF; the printed residues 377RKRKRPR383 near the C terminus fit the 387-residue TC45 isoform; Self-association was tested with an equimolar mixture of two differently labelled copies: CFP-TC45-CFP and YFP-TC45-YFP; The His6 tag and its thrombin cleavage are described in general for the pET28 constructs …
B2: binds.
